Measurements reported in paper PMC3237003 (Toxins, 2011).

B1: sdAb Abr2 (VHH)
VHH: DVQLQASGGGLVQAGGSLVLSCTASGRSVSSLAMGWLRQVPGKERELVGSISLSGGRTYYADSMKGRFTISKDNAKNTVALQMNSLRPEDTAVYYCAARDAARDYAPLNFDTWGQGTQVTVSS
notes: source: E. coli Rosetta, soluble sdAb expression vector
B2: sdAb Abr5 (VHH)
VHH: EVQLQASGGGLVQAGGSLRLSCVVSGLSVGLNPVAWYRQAPGQQRDWVARMSMRGLTDYPDSLKGRAIISRDNAKNTVSLQMDSLKPEDTAVYFCKVGLSYWGQGTQVTVSS
notes: as for B1
B3: sdAb Abr1 (VHH)
VHH: EVQLQASGGGLVQAGGSLRLSCAASGSDGSLEIMGWYRQAPGKQRELVARATSGGLKNYADSVKGRFTISGDLDKNTVYLQMNSLQPEDTGVYVCHLGVVASTYRDYWGQGTQVTVSS
notes: as for B1

How the values were obtained:
[1] = target: T1, staphylococcal enterotoxin B (SEB) (Staphylococcus aureus, strain , UniProt P01552); assay: Luminex direct binding (microsphere fluorescence immunoassay); settings: both partners purified
T1 construct: source: bought: Toxin Technology, Inc

[2] = target: bovine serum albumin (BSA) (Bos taurus, UniProt P02769); assay: as above; settings: both partners purified
bovine serum albumin (BSA), sequence (P02769 25-607): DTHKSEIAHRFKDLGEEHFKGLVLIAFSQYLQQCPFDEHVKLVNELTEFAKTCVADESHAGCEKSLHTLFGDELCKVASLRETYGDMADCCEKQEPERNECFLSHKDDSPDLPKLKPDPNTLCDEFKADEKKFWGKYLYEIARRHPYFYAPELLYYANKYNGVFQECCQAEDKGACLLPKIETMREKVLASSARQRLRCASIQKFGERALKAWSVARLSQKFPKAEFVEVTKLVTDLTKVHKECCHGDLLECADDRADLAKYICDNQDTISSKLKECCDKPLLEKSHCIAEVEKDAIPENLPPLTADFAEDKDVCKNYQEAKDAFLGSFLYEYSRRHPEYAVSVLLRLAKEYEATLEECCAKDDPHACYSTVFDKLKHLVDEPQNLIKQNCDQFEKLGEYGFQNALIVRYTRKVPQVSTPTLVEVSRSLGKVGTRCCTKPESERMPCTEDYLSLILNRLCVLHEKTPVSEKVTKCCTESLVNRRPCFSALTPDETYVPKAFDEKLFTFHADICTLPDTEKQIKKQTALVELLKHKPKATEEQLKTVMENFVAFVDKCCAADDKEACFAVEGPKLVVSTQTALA

T1 sequence (P01552 28-266): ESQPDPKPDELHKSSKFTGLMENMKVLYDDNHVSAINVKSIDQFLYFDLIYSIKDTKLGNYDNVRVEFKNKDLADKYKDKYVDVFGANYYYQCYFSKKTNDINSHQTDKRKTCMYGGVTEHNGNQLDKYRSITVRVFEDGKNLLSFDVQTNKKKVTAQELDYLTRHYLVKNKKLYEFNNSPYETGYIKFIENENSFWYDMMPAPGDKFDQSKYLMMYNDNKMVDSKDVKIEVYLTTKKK

Binder | binding result [1] | binding result [2]
B1 | no binding | no binding
B2 | no binding | no binding
B3 | no binding | no binding
